Source: IntAct's records for PubMed 7758105

B1: Tumor necrosis factor receptor superfamily member 1A (Homo sapiens), P19438 (parent)
chain: MGLSTVPDLLLPLVLLELLVGIYPSGVIGLVPHLGDREKRDSVCPQGKYIHPQNNSICCTKCHKGTYLYNDCPGPGQDTDCRECESGSFTASENHLRHCLSCSKCRKEMGQVEISSCTVDRDTVCGCRKNQYRHYWSENLFQCFNCSLCLNGTVHLSCQEKQNTVCTCHAGFFLRENECVSCSNCKKSLECTKLCLPQIENVKGTEDSGTTVLLPLVIFFGLCLLSLLFIGLMYRYQRWKSKLYSIVCGKSTPEKEGELEGTTTKPLAPNPSFSPTPGFTPTLGFSPVPSSTFTSSSTYTPGDCPNFAAPRREVAPPYQGADPILATALASDPIPNPLQKWEDSAHKPQSLDTDDPATLYAVVENVPPLRWKEFVRRLGLSDHEIDRLELQNGRCLREAQYSMLATWRRRTPRREATLELLGRVLRDMDLLGCLEDIEEALCGPAALPPAPSLLR
partner: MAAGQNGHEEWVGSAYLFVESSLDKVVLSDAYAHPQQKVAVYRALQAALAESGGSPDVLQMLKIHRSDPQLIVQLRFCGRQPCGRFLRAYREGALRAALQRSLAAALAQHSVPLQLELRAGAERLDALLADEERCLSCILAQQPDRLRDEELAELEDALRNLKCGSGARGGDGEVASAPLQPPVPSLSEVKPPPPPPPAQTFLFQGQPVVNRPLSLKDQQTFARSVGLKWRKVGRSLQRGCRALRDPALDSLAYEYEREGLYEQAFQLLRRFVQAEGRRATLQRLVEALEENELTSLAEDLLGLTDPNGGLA

Variants of: B1
Conditions: with tradd_human TRADD

| Variant | effect of a mutation on the interaction |
| --- | --- |
| K372A;F374A;R376A | decreasing interaction |
